Measured values: patent US12187772 (Regeneron, dated 2025)

T1: IL10 receptor (IL10 receptor subunit alpha IL10Ra and beta subunit IL10Rb) on Ramos/STAT3-Luc and … (UniProt Q13651 22-578; Q08334 20-325, limits assumed)
T1 sequence (looked up) 1: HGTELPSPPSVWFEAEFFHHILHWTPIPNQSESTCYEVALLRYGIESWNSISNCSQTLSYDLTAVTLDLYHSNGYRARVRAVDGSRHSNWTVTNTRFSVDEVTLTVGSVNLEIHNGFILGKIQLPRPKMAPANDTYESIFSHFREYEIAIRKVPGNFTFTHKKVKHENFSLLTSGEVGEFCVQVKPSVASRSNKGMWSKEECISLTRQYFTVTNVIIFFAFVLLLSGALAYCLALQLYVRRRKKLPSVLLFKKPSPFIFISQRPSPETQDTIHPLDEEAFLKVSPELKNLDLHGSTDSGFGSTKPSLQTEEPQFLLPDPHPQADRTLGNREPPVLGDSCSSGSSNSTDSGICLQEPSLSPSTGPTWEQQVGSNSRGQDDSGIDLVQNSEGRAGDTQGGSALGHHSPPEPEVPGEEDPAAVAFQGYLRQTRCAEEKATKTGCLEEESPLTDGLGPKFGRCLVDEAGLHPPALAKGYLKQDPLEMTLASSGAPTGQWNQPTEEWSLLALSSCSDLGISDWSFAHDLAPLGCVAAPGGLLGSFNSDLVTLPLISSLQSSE
T1 sequence (looked up) 2: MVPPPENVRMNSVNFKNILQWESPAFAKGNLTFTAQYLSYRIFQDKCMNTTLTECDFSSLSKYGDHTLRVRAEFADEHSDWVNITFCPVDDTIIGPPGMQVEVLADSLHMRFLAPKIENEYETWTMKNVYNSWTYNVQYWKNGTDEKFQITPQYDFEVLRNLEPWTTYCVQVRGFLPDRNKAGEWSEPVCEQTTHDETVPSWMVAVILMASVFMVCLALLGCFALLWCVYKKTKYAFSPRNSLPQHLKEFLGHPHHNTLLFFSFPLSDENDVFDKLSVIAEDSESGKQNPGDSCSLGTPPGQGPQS


Molecular target: T1, IL10 receptor (IL10 receptor subunit …)
Assay: cell-based or functional assay

| EC50 of luciferase activity, Ramos/Stat3-Luc reporter cells [nM] | EC50 of luciferase activity, TF-1/Stat3-Luc reporter cells [nM] | Fold Induction of luciferase activity, Ramos/Stat3-Luc reporter cells [fold] | Fold Induction of luciferase activity, TF-1/Stat3-Luc reporter cells [fold] | Binder |
| --- | --- | --- | --- | --- |
| 0.127 | 0.146 | 3.81 | 3.4 | IL10M5 (Fc-1XG4S-hIL10; Fc is IgG4s) (Fc fusion) ESKYGPPCPPCPAPPVAGPSVFLFPPKPKDTLMISRTPEVTCVVVDVSQEDPEVQFNWYVDGVEVHNAKTKPREEQFNSTYRVVSVLTVLHQDWLNGKEYKCKVSNKGLPSSIEKTISKAKGQPREPQVYTLPPSQEEMTKNQVSLTCLVKGFYPSDIAVEWESNGQPENNYKTTPPVLDSDGSFFLYSRLTVDKSRWQEGNVFSCSVMHEALHNHYTQKSLSLSLGKGGGGSSPGQGTQSENSCTHFPGNLPNMLRDLRDAFSRVKTFFQMKDQLDNLLLKESLLEDFKGYLGCQALSEMIQFYLEEVMPQAENQDPDIKAHVNSLGENLKTLRLRLRRCHRFLPCENKSKAVEQVKNAFNKLQEKGIYKAMSEFDIFINYIEAYMTMKIRN |
| 0.115 | 0.138 | 4.06 | 3.78 | IL10M4 (Fc-2XG4S-hIL10; Fc is IgG4s) (Fc fusion) ESKYGPPCPPCPAPPVAGPSVFLFPPKPKDTLMISRTPEVTCVVVDVSQEDPEVQFNWYVDGVEVHNAKTKPREEQFNSTYRVVSVLTVLHQDWLNGKEYKCKVSNKGLPSSIEKTISKAKGQPREPQVYTLPPSQEEMTKNQVSLTCLVKGFYPSDIAVEWESNGQPENNYKTTPPVLDSDGSFFLYSRLTVDKSRWQEGNVFSCSVMHEALHNHYTQKSLSLSLGKGGGGSGGGGSSPGQGTQSENSCTHFPGNLPNMLRDLRDAFSRVKTFFQMKDQLDNLLLKESLLEDFKGYLGCQALSEMIQFYLEEVMPQAENQDPDIKAHVNSLGENLKTLRLRLRRCHRFLPCENKSKAVEQVKNAFNKLQEKGIYKAMSEFDIFINYIEAYMTMKIRN |
